Experimental data from patent publication US20230265179A1 (TWIST BIOSCIENCE, published 2023).
Changes are numbered by the printed parent chain.

B1: IL1RL1-89 (Fc fusion, not shown: a dimerising Fc or GST)
VHH: EVQLVESGGGLVQPGGSLRLSCAASGSIYSLVAMGWFRQAPGKEREAVAGIVSGGSTSYADSVKGRFTISADNSKNTAYLQMNSLKPEDTAVYYCAAVGGATTVTASEWDWGQGTLVTVSS
notes: VHH-Fc on IgG2 Fc
B2: IL1RL1-78 (Fc fusion, not shown: a dimerising Fc or GST)
VHH: EVQLVESGGGLVQPGGSLRLSCAASGFTLDDYAMGWFRQAPGKEREEVAAISWIIGSTKYADSVKGRFTISADNSKNTAYLQMNSLKPEDTAVYYCAAIVYEEGVYRWDWGQGTLVTVSS
notes: VHH-Fc on IgG2 Fc
B3: IL1RL1-73 (Fc fusion, not shown: a dimerising Fc or GST)
VHH: EVQLVESGGGLVQPGGSLRLSCAASGDISSIVAMGWFRQAPGKEREWVSSIGIAGTPTFYADSVKGRFTISADNSKNTAYLQMNSLKPEDTAVYYCAGRSIGVDDMPYVWGQGTLVTVSS
notes: VHH-Fc on IgG2 Fc
B4: IL1RL1-88 (Fc fusion, not shown: a dimerising Fc or GST)
VHH: EVQLVESGGGLVQPGGSLRLSCAASGRTSHGYGGYGMGWFRQAPGKEREEVAAISSSGSSTVYADSVKGRFTISADNSKNTAYLQMNSLKPEDTAVYYCAAIAYEEGVYRWDWGQGTLVTVSS
notes: VHH-Fc on IgG2 Fc
B5: IL1RL1-91 (Fc fusion, not shown: a dimerising Fc or GST)
VHH: EVQLVESGGGLVQPGGSLRLSCAASGGTFGSYAMGWFRQAPGKEREGVAAIYTGGITTYADSVKGRFTISADNSKNTAYLQMNSLKPEDTAVYYCAAFDGYSGSDWGQGTLVTVSS
B6: IL1RL2-10 (VHH)
VHH: EVQLVESGGGLVQPGGSLRLSCAASGFTFSNHIMGWFRQAPGKEREWVSGINRDGSTSYADSVKGRFTISADNSKNTAYLQMNSLKPEDTAVYYCAKARQITGWDFDYWGQGTLVTVSS
notes: VHH-Fc based on IgG2 Fc
B7: IL1RL2-42 (VHH)
VHH: EVQLVESGGGLVQPGGSLRLSCAASGRTFSSYDMGWFRQAPGKEREFVAAIVWIGGRTYYADSVKGRFTISADNSKNTAYLQMNSLKPEDTAVYYCADVNGDWGQGTLVTVSS
notes: VHH-Fc based on IgG2 Fc
B8: IL1RL2-48 (VHH)
VHH: B7 VHH with F47L, V52T, I54N, G55S, R57S, Y59L
notes: VHH-Fc based on IgG2 Fc
B9: IL1RL2-44 (VHH)
VHH: B7 VHH with T28S, S31T, F47L, V52S, I54S, R57S
notes: VHH-Fc based on IgG2 Fc
B10: IL1RL2-56 (VHH)
VHH: B7 VHH with S31T, V52S, I54G, R57L, Y59V
notes: VHH-Fc based on IgG2 Fc
B11: IL1RL2-16 (VHH)
VHH: EVQLVESGGGLVQPGGSLRLSCAASGSDFSIKAMGWFRQAPGKEREFVADIYTSTTTNYTNYADSVKGRFTISADNSKNTAYLQMNSLKPEDTAVYYCAAIAYEEGVYRWDWGQGTLVTVSS
notes: VHH-Fc based on IgG2 Fc
B12: IL1RL2-32 (VHH)
VHH: B11 VHH with S27N, Y103H
notes: VHH-Fc based on IgG2 Fc
B13: IL1RL2-4 (VHH)
VHH: EVQLVESGGGLVQPGGSLRLSCAASGFILREYNMGWFRQAPGKEREFVAAISPSAFTEYADSVKGRFTISADNSKNTAYLQMNSLKPEDTAVYYCAAANEYWVYVNPNRYTWGQGTLVTVSS
notes: VHH-Fc based on IgG2 Fc
B14: IL1RL2-54 (VHH)
VHH: B13 VHH with F27R, I28Y, L29F, R30S, E31D
notes: VHH-Fc based on IgG2 Fc
B15: IL1RL2-26 (VHH)
VHH: EVQLVESGGGLVQPGGSLRLSCAASGSIFSIYDMGWFRQAPGKEREFVAAISGWSGGRTSYADSVKGRFTISADNSKNTAYLQMNSLKPEDTAVYYCAAIAYEEGVYRWDWGQGTLVTVSS
notes: VHH-Fc based on IgG2 Fc
B16: IL1RL2-21 (VHH)
VHH: EVQLVESGGGLVQPGGSLRLSCAASGRTFSRYAMGWFRQAPGKEREFVAAINWSGDRTYYADSVKGRFTISADNSKNTAYLQMNSLKPEDTAVYYCAVSQPLNYYTYYDARRYDWGQGTLVTVSS
notes: VHH-Fc based on IgG2 Fc
B17: IL1RL2-37 (VHH)
VHH: B16 VHH with R27G, T28A, R31T, Y32V, N52S, G55R, D56G, Y59F
notes: VHH-Fc based on IgG2 Fc
B18: IL1RL2-41 (VHH)
VHH: B16 VHH with R27G, I51V, D56A
notes: VHH-Fc based on IgG2 Fc
B19: IL1RL2-36 (VHH)
VHH: B16 VHH with F29Y, S30N, R31S, A33S, N52S, D56E, R57H
notes: VHH-Fc based on IgG2 Fc
B20: IL1RL2-43 (VHH)
VHH: B16 VHH with R27G, N52S, D56A, R57N
notes: VHH-Fc based on IgG2 Fc
B21: IL1RL2-3 (VHH)
VHH: EVQLVESGGGLVQPGGSLRLSCAASGRTVSTMGWFRQAPGKEREWVSTITFNGDHTYYADSVKGRFTISADNSKNTAYLQMNSLKPEDTAVYYCAKAYSSSWPYFDYWGQGTLVTVSS
notes: VHH-Fc based on IgG2 Fc
B22: IL1RL2-14 (VHH)
VHH: EVQLVESGGGLVQPGGSLRLSCAASGFTFSNYWMGWFRQAPGKEREFVATIPWSGAYTEYADSVKGRFTISADNSKNTAYLQMNSLKPEDTAVYYCAAANEYWVYVNPNRYTWGQGTLVTVSS
notes: VHH-Fc based on IgG2 Fc
B23: IL1RL2-25 (VHH)
VHH: B22 VHH with F27L, T28P, S30N, Y32V, W33Y, T50A, I51V, P52T
notes: VHH-Fc based on IgG2 Fc
B24: IL1RL2-49 (VHH)
VHH: B22 VHH with N31T, S54I, Y57H, A98E, V104G, Q115P, S123H
notes: VHH-Fc based on IgG2 Fc
B25: IL1RL2-8 (VHH)
VHH: B22 VHH with F29Y, N31S, Y32N, W33Y, T50G, P52S, S54T, G55D
notes: VHH-Fc based on IgG2 Fc
B26: IL1RL2-39 (VHH)
VHH: B22 VHH with F27R, T28A, N31S, Y32T, W33V, T50G, P52G, S54T, G55D
notes: VHH-Fc based on IgG2 Fc
B27: IL1RL2-55 (VHH)
VHH: EVQLVESGGGLVQPGGSLRLSCAASGYTDSNLWMGWFRQAPGKEREFVASIDWSGRSTYYADSVKGRFTISADNSKNTAYLQMNSLKPEDTAVYYCAANGIESYGWGNRHFNWGQGTLVTVSS
notes: VHH-Fc based on IgG2 Fc
B28: IL1RL2-19 (VHH)
VHH: B27 VHH with I51V, D52N, R56K, S57D
notes: VHH-Fc based on IgG2 Fc
B29: IL1RL2-13 (VHH)
VHH: B27 VHH with A49G, S54I, G55P, R56S, S57N, T58I
notes: VHH-Fc based on IgG2 Fc

Molecular target: T1, IL1RL1 (UniProt Q01638 19-328, limits assumed)
T1 construct: SPR analyte
T1 sequence (looked up): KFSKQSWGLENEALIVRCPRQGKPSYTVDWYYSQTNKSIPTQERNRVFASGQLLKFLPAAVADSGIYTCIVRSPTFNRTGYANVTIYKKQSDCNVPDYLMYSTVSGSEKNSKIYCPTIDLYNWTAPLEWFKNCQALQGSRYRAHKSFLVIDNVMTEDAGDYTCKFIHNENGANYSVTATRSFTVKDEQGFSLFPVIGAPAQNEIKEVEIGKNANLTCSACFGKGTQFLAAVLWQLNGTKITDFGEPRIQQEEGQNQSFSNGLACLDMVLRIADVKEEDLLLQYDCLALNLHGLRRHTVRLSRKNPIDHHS
Assay: SPR (Carterra LSA), antibody amine-coupled, 1:1 model;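 further: HC30M sensor chip at 25 °C in HBS-TE, analyte at rising concentrations in buffer containing 0.5 mg/mL BSA, 5 min association then 15 min dissociation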

Binder	Kd	koff	kon
B1	0.781 nM	0.000388 s⁻¹	496000 M⁻¹ s⁻¹
B2	1.36 nM	0.000278 s⁻¹	204000 M⁻¹ s⁻¹
B3	2.06 nM	0.000362 s⁻¹	176000 M⁻¹ s⁻¹
B4	0.529 nM	0.000104 s⁻¹	197000 M⁻¹ s⁻¹
B5	1.85 nM	0.000261 s⁻¹	141000 M⁻¹ s⁻¹

Molecular target: T2, IL1RL2 over-expressed on Expi293 cells (UniProt Q9HB29 20-575, limits assumed)
T2 construct: whole, on cells; Target of the flow cytometry assay; MFI ratio is over-expressing cells over parent cells
T2 sequence (looked up): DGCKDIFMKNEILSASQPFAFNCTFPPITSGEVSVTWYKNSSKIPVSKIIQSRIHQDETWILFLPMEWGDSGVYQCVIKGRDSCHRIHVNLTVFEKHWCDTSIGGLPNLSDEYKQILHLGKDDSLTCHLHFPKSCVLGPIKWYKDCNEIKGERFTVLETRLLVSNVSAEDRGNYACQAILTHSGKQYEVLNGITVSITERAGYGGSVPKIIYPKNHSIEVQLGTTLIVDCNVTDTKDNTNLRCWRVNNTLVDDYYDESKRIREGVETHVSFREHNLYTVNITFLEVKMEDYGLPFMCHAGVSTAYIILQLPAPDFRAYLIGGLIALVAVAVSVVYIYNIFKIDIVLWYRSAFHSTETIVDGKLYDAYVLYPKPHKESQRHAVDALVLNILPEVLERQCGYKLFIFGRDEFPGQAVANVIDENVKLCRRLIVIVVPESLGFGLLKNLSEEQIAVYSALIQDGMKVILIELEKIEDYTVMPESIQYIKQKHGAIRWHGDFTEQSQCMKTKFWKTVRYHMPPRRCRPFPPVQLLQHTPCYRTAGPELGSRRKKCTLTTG
Assay: flow cytometry, over-expressing Expi293 vs parent cells, 100 nM antibody;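 further: ratio is mean fluorescence intensity on over-expressing Expi293 cells divided by that measured on parental Expi293 cells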
Experimental: (§1) All incubations and washes were in buffer containing PBS+1% BSA. MFI Ratio is defined by the mean fluorescence intensity (MFI) of the cytokine over-expressing Expi293 cell over the Expi293 parent cell. […] EC50 was calculated in GraphPad Prism.

Binder	100 nM FACS (MFI Ratio)
B6	12.7
B7	2.47
B8	7.83
B9	0.95
B10	3.83
B11	37.6
B12	20.1
B13	15.7
B14	21.1
B15	39.5
B16	20.9
B17	16.9
B18	5.33
B19	14
B20	1.62
B21	1.97
B22	42.1
B23	16.5
B24	190
B25	12.8
B26	15.3
B27	49.7
B28	13.8
B29	11.3

Molecular target: T3, IL1RL1 over-expressed on Expi293 cells (UniProt Q01638 19-556, limits assumed)
T3 construct: whole, on cells; Target of the flow cytometry MFI ratio (over-expressing cells over parent cells); also called cytokine over-expressing Expi293 cells
T3 sequence (looked up): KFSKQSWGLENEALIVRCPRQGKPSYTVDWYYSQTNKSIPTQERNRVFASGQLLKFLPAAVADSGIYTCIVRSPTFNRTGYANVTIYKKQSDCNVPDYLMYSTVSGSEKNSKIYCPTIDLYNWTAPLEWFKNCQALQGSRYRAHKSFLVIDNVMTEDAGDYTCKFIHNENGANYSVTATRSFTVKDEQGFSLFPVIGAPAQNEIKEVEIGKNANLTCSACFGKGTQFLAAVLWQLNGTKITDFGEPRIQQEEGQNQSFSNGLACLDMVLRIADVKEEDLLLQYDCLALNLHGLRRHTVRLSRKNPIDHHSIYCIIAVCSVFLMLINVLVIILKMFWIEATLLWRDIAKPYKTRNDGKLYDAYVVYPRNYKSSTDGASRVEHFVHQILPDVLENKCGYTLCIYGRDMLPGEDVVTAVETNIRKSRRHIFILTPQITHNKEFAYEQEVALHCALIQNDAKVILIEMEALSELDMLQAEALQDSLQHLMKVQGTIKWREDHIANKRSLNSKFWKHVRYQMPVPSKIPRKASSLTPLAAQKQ
Assay: flow cytometry, 100 nM antibody, over-expressing Expi293 / parent cells
Experimental: as §1

Binder	100 nM FACS (MFI Ratio)
B1	340 MFI ratio
B2	475 MFI ratio
B3	463 MFI ratio
B4	339 MFI ratio
B5	475 MFI ratio
